Measured values taken from patent publication US20260275319A1, “ARCHAEAL PEPTIDE RECOMBINASE – A NOVEL PEPTIDE LIGATING ENZYME” (MAX-PLANCK-GESELLSCHAFT ZUR FÖRDERUNG DER WISSENSCHAFTEN …, priority 2019, published 2026).

Test system: (15)KDPGA(10F) and PGA(10) peptides
Assay: M. jannaschii Adriase peptide ligation rates with fluorescent peptides (SDS-PAGE/UV)
Assay type: biochemical
Protocol: To test this assumption, the Adriase reaction was performed with (X1)KDPGA(X2) peptides bearing a C-terminal fluorophore (SEQ ID NOs: 370-371 and 418; see also Table 6) and unmodified PGA(X3) synthetic peptides (SEQ ID NOs: 373-375; see Table 7) as model substrates. The recombination reaction is expected to result in the formation of a (X1)KDPGA(X3) fusion peptide, releasing the respective C-terminal peptides PGA(X2)(SEQ ID NOs: 414) with the C-terminal fluorescent label. The latter can be visualized in order to track the progress of the reaction.
For this purpose, ligations were performed and visualized as described above, except for the use of just 6 nM Adriase and the increasing concentrations of (15)KDPGA(10F) (SEQ ID NO: 418) and PGA(10)(SEQ ID NO: 374) peptides (2.5/5/10/20/40/80/160 µM of each peptide of the peptide pairs). The band intensity of the respectively fluorescently labeled PGA(10F)-peptide (see SEQ ID NO: 414), which is released by the ligation reaction was quantified using ImageJ v1.50i and subtracted from background signal in control reactions without PGA(10) peptide.
To determine how the reaction is influenced by recognition motif characteristics, ligation rates for other substrates were determined in the same manner, except for the use of 20 μM of the indicated substrates (see also Tables 6 and 7) and varying concentrations of Adriase (6/30/150/750 nM). […] In combination with the above experiments (FIGS. 9A and B), they provide the means to design substrates for efficient Adriase-mediated ligations.

B1: M. jannaschii Adriase: Methanocaldococcus jannaschii Adriase (MJ_0548) with C-terminal His6-tag (protein)
chain: SLIICYYGKNGAVIGGDRRQIFFRGSEENRKILEEKLYSGEIKSEEELYKLAEKLNIKIIIEDDREKVRKISDSVVCGEVRSLGIDAKRRRVYATKGKCAIVDILNDTVTNQTIKEGFGIVVLGNRFLKKKAEEELKRTAKLFPMMPIQQIEDAIKEIFEKLKWHPTVSKEYDIYSVNKYEKNFEEVIKKDIESLFKYREQLRKQLIDFGKVMSIVNKIVKNGEIGVIKDGKLHLYDDYIAIDKIDPNPKVFKVVDVEGNFKDGDIVVIENGDMKIKGTNEKVTTKYIIIHKGSHHHHHH
modifications: C-terminal His6-tag; M. jannaschii Adriase with C-terminal His-tag
**Q.** Which results are given for B1?
**A.** maximum rate (6 nM Adriase, 85° C., equimolar substrates 2.5-160 μM, Michaelis-Menten model, single experiment): ~ 1.4 ligations per enzyme and second; ligation of (X1)KDPGA(X2) and PGA(X3) peptides (20 μM substrates, 6/30/150/750 nM Adriase, X1≥5 and X2=X3≥10): efficiently ligates; substrate concentration at half maximal reaction speed (each substrate, 6 nM Adriase, 85° C., Michaelis-Menten model): 23 µM
